According to patent publication US12168677B2, “Proteins for the treatment of epithelial barrier function disorders” (Genevive, Inc., priority 2017, dated 2024):

Key:
[1] = test system: HCT8 enterocytes and HT29-MTX goblet cells; assay: Co-culture trans-epithelial electrical resistance (TEER) assay with heat killed E. coli challenge; assay type: cell-based, human; conditions: TEER after 24 hours
Experimental: Assays were performed as described below in trans-well plates where co-cultures of multiple cell types were performed utilizing a permeable membrane to separate cells. In the apical (top) chamber, human colonic epithelial cells, consisting of a mixture of enterocytes and goblet cells, were cultured until cells obtained tight junction formation and barrier function capacity as assessed by measurement of trans-epithelial electrical resistance (TEER). In the basolateral chamber, monocytes were cultured separately. Epithelial cells were primed with inflammatory cytokines. The assays measured the effect of a therapeutic protein, i.e., SG-15, on epithelial barrier function, wound healing, and production of cytokines. Cell culture. The HCT8 human enterocyte cell line (ATCC Cat. No. CCL-244) was maintained in RPMI-1640 medium supplemented with 10% fetal bovine serum, 100 IU/ml penicillin, 100 μg/ml streptomycin, 10 μg/ml gentamicin and 0.25 μg/ml amphotericin (cRPMI). HT29-MTX human goblet cells (Sigma-Aldrich (St. Louis, MO; Cat. No. 12040401) were maintained in DMEM medium with 10% fetal bovine serum, 100 IU/ml penicillin, 100 μg/ml streptomycin, 10 μg/ml gentamicin and 0.25 μg/ml amphotericin (cDMEM). Epithelial cells were passaged by trypsinization and were used between 5 and 15 passages following thawing from liquid nitrogen stocks. U937 monocytes (ATCC Cat. No. 700928) were maintained in cRPMI medium as a suspension culture, and split by dilution as needed to maintain cells between 5×10^5 and 2×10^6 cells/ml. U937 cells were used up to passage 18 following thawing from liquid nitrogen stocks. Epithelial cell culture. A mixture of HCT8 enterocytes and HT29-MTX goblet cells were plated at a 9:1 ratio, respectively, in the apical chamber of the transwell plate as described previously (Berget et al., 2017, Int J Mol Sci, 18:1573; Beduneau et al., 2014, Eur J Pharm Biopharm, 87:290-298). A total of 10^5 cells were plated in each well (9×10^4 HCT8 cells and 1×10^4 HT29-MTX cells per well). Epithelial cells were trypsinized from culture flasks and viable cells determined by trypan blue counting. The correct volumes of each cell type were combined in a single tube and centrifuged. The cell pellet was resuspended in cRPMI and added to the apical chamber of the transwell plate. […] Monocyte culture. On day 6 of epithelial cell culture 2×10^5 cells/well U937 monocytes were plated into a 96 well receiver plate. […] Co-culture assay. […] After 24 hours fresh cRPMI was added to the epithelial cell culture plate. Trans-epithelial electrical resistance (TEER) readings were measured after the IFN-γ treatment and were used as the pre-treatment TEER values. SG-15 was then added to the apical chamber of the transwell plate at a final concentration of 1 μg/ml (40 nM). The myosin light chain kinase (MLCK) inhibitor peptide 18 (BioTechne, Minneapolis, MN) was used at 50 nM as a positive control to prevent inflammation induced barrier disruption (Zolotarevskky et al., 202, Gastroenterology, 123:163-172). The bacterially derived molecule staurosporine was used at 100 nM as a negative control to induce apoptosis and exacerbate barrier disruption (Antonsson and Persson, 2009, Anticancer Res, 29:2893-2898). […] Following pre-incubation with test compounds the transwell insert containing the enterocytes was transferred on top of the receiver plate containing U937 monocytes. Heat killed E. coli (HK E. coli) (bacteria heated to 80° C. for 40 minutes) was then added to both the apical and basolateral chambers and a multiplicity of infection (MOI) of 10. […] The TEER assays were performed with recombinantly expressed mature (lacking a signal peptide) SG-15 protein such as that described in Example 1A above. Data analysis. Raw electrical resistance values in ohms (Ω) were converted to ohms per square centimeter (Ωcm^2) based on the surface area of the transwell insert (0.143 cm^2). […]

[2] = test system: LPS binding protein (LBP); assay: DSS model: LPS binding protein in serum (ELISA); assay type: in vivo, C57BL/6 mice; conditions: 50 nmoles/kg i.p. b.i.d.; 2.5% DSS 6 days
Experimental: Eight-week old C57BL/6 mice were housed 5 animals were cage and given food and water ad libitum for 7 days. Following the 7-day acclimation period, treatments were initiated concurrently with addition of 2.5% DSS to the drinking water. […] The mice were treated with 2.5% dextran sodium sulfate (DSS) in their drinking water for 6 days. Treatments were continued with SG-15 or […]-GLP2 twice a day (b.i.d.) in the morning and evening (every 8 and 16 hr) with i.p. injections at 50 nmoles/kg. Fresh 2.5% DSS drinking water was prepared every 2 days. SG-15 was also assessed for its effects on the levels of LPS binding protein (LBP) in the blood of the DSS animal with and without SG-15 administration. LPS binding protein (LBP), which has been linked to clinical disease activity in subjects with inflammatory bowel disease, was also measured by ELISA in the serum of mice tested in the DSS model described in Example 1E. […] Results are shown in FIG. 5, and are presented as mean±SEM. The graph in FIG. 5 represents data pooled from the 2 individual experiments (n=20).

DSS treated mice [3] = assay: DSS model: gross pathology score; assay type: in vivo, C57BL/6 mice; conditions: 50 nmoles/kg i.p. b.i.d., 2.5% DSS 6 days; for Gross pathology compared to vehicle treated DSS mice: score 0-5
Experimental: Eight-week old C57BL/6 mice were housed 5 animals were cage and given food and water ad libitum for 7 days. Following the 7-day acclimation period, treatments were initiated concurrently with addition of 2.5% DSS to the drinking water. […] The mice were treated with 2.5% dextran sodium sulfate (DSS) in their drinking water for 6 days. Treatments were continued with SG-15 or […]-GLP2 twice a day (b.i.d.) in the morning and evening (every 8 and 16 hr) with i.p. injections at 50 nmoles/kg. Fresh 2.5% DSS drinking water was prepared every 2 days. Gross pathology observations were made in mice included in the concurrent DSS model performed in Example 1E. […] The scoring system used was: (0)=no gross pathology, (1)=streaks of blood visible in feces, (2)=completely bloody fecal pellets, (3) bloody fecal material visible in cecum, (4) bloody fecal material in cecum and loose stool, (5)=rectal bleeding. Results are shown in FIG. 7, with the graph representing data pooled from the 2 individual experiments (n=20).

DSS treated mice [4] = assay: DSS model: colon length; assay type: in vivo, C57BL/6 mice; conditions: 50 nmoles/kg i.p. b.i.d.; 2.5% DSS 6 days
Experimental: Eight-week old C57BL/6 mice were housed 5 animals were cage and given food and water ad libitum for 7 days. Following the 7-day acclimation period, treatments were initiated concurrently with addition of 2.5% DSS to the drinking water. […] The mice were treated with 2.5% dextran sodium sulfate (DSS) in their drinking water for 6 days. Treatments were continued with SG-15 or […]-GLP2 twice a day (b.i.d.) in the morning and evening (every 8 and 16 hr) with i.p. injections at 50 nmoles/kg. Fresh 2.5% DSS drinking water was prepared every 2 days. Colon length was measured in mice included in the DSS model described in Example 1E. […] The graph in FIG. 8 represents data pooled from the 2 individual experiments (n=20).

[5] = protein 1 μg/ml (40 nM) added 30 minutes before HK E. coli
[6] = protein 1 μg/ml (40 nM) pre-incubated 6 hours before HK E. coli

Molecule	TEER of epithelial cell barrier (percent of untreated samples) [1, 5] [%]	TEER of epithelial cell barrier (percent of untreated samples) [1, 6]	Impact on LBP concentration compared to control peptide Gly2-GLP2 [2]	LBP in serum compared to DSS mice treated with vehicle [2]	Gross pathology compared to vehicle treated DSS mice (DSS treated mice [3])	Colon length / colon shortening elicited by DSS treatment (DSS treated mice [4])	Clinical scores compared with DSS mice treated with Gly2-GLP2 (DSS treated mice [3])
SG-17: 327 amino acid protein (SEQ ID NO:13) encoded by the genome of Eubacterium eligens (protein, listed as Eubacterium eligens) CNSKIDVKYDYNVEDYVQLGQYENISVQVDKTSIENELIESKIKQDVEDNTTYTEVDRGAIASDQILVTYTATSSGASLSGLTNTDGKTMILGTDTLGLELDELDQALYGMTPGQTKILIVDIPEDYSSDLYKGTRVVFELTMQTVAQANVPMITNAYVKEAFGYDTVEEYRQSIKESLETDINSKVENKIQEDVLSSLQDTFKISSYPDSLMEETRSRLETSIGFYADFSNLSKDEYCQKQYGLSFDDFVKKSVVQQLIMEAIVKDRNMTMREYDYKGSLDDFAADNGYSNADTFVEKFGKDKIVKAMLVQKAQDYVIEHANISYK	72.0	about 74.2%	greater impact on LBP concentration	significant reduction in LBP	did not reduce gross pathology	did not reduce colon shortening	
SG-15: 400 amino acid protein (SEQ ID NO:1) encoded by the genome of Eubacterium eligens (protein, listed as Eubacterium eligens) EYTEIRTASELVEAAKSASGNYKLMTDIDMTGVEWTPWDFSGTFDGNGHSILNLSVKTVSKKTMKTYDGNRKEYKTYGAGFFGVLTGAKVTGLDIYGARIEITTTEPCFAAPIAGLADDSDISDCIIKDTYVSLTDSAKMWGTGGIAGFGSGNLDNITTDVTLVCVDTDAAVRDEQFMGGAYAAGFLNIRNCSITIDGYDSDHGYVHDGGLVGMYMVYPLELSKTYQGEVLNNKVKGMITFFEDNTDRRAYCQANMGEVMNWTYAYSGFTSDFKRNETYDYSVTLLPEMCSNPSYTDVVTEATASDFGYTTHTCSTCGYTYSDTYTIHEHKVDSYSVVKEAASTDKKDGIEAGTCSLCNQTVYREYAANVVTDDNTQATDNKASGTAVKKGMKESTAVFA	71.4	68.5%		significant reduction in LBP	significantly improved gross pathology	reduced colon shortening	No differences
SG-16: 119 amino acid protein (SEQ ID NO:9) encoded by the genome of Eubacterium eligens (protein, listed as Eubacterium eligens) MTGCSGSKEPDNKTSVDYTVVENADLPEELKKLIESKKDKVMRLTYTTKDYTYVVAGYGTRETSGYSIKVNDVYTGDNALYIDLNLIGPAAGEAVNEVETYPVIVLKMERREESVVFKM	60.7	about 60.0%		No change in LBP	did not reduce gross pathology	slightly improved colon shortening	
SG-18: 267 amino acid protein (SEQ ID NO:19) encoded by the genome of Clostridium bartlettii sp. nov. (protein, listed as Clostridium bartlettii) EVDSSKEQATSKDEKQVVVATSVAITEILDRLGVEVSGVPQTSYELPESAKGATEIGSPMNPDMEIIKSLNPTDVICVDTLGSDFEKQFEENNINADFYNLSNVDGLKETIAALGEKFNKQDKANEILDEIKEVENKVNSNKKSDDKILVLFGAPGSVMVATDKSYIGNLVELAGGNNIFSNATSSFTQINLEEIIKLNPDKILVMTHAVPEAAKKSVEEELSKDLWKNVNAVKNNDITYLENGYFGMSANLQIVEAVEKLGDILYE	71.0	about 85.0%			did not reduce gross pathology	did not reduce colon shortening	
